Source: PMC5081515, “Crystal structures and inhibition of Trypanosoma brucei hypoxanthine–guanine phosphoribosyltransferase” (Scientific Reports, 2016)

Experiments:
[1] = substrate: O=c1[nH]cnc2nc[nH]c12; test: purified protein, by the assay type; settings: other: 0.03 M phosphate buffer, 0.012 M MgCl2, 1 mM DTT, pH 7.4, 25 °C, bases at 500 μM PRib-PP, PRib-PP at 40 μM guanine
[2] = substrate: O=P(O)(O)OC[C@H]1O[C@H](OP(=O)(O)OP(=O)(O)O)[C@H](O)[C@@H]1O; test: purified protein, by the assay type; settings: other: 0.03 M phosphate buffer, 0.012 M MgCl2, 1 mM DTT, pH 7.4, 25 °C, bases at 500 μM PRib-PP, PRib-PP at 40 μM guanine

B1: TbrHGPRT (Trypanosoma brucei brucei) (protein)
chain: MEPACKYDFATSVLFTEAELHTRMRGVAQRIADDYSNCNLKPLENPLVIVSVLKGSFVFTADMVRILGDFGVPTRVEFLRASSYGHDTKSCGRVDVKADGLCDIRGKHVLVLEDILDTALTLREVVDSLKKSEPASIKTLVAIDKPGGRKIPFTAEYVVADVPNVFVVGYGLDYDQSYREVRDVVILKPSVYETWGKELERRKAAGEAKR
- Km [1]: 5.5 ± 0.3 µM
- kcat [1]: 17.1 s⁻¹
- kcat/Km [1]: 3.1e+06 M⁻¹ s⁻¹
- Km [2]: 103 ± 16 µM
